Results on three substances are retold here after US7795380B2, “Compositions and methods for nucleic acid delivery” (University of Iowa Research Foundation, priority 2006, dated 2010).

Where no end group is shown, it is not given here. photolabel = not defined here

A short description of series [1]: stability of the linker peptide by LC/MS. Format: physicochemical. As to the method: To test the hypothesis that the new linker would be stable under normal operating conditions, the linker was first synthesized via solid phase peptide synthesis and then purified by preparative reverse phase HPLC. Characterization and purity of the linker was accomplished through analytical reverse phase HPLC and LC/MS (FIG. 11). The stability of the linker peptide was determined by LC/MS after exposure to a variety of conditions including incubations at room temperature, 37° C., 50° C., and exposure to sunlight.
However, this is not surprising since PL-L1 peptide is a photoactive compound and should photoactivate if provided the proper stimulus.

A further series concerns erythrocytes. The conditions noted are these: cited from earlier work.

On to “PL-Tyr-Lys-Lys-Lys (photolabel-YKKK; reading uncertain; also: printed as PL-Tyr-Lys-Lys-Lys) [PL-L1]”, for which the “stability by LC/MS” value in series [1] (exposure to sunlight) is listed as “moderate degradation”; in series [1] (room temperature, 37° C., 50° C.), “stable”. Consider “H5WYG: cationic peptide from HA-2 with His in place of Glu (GGLFHAIAAHFIHGGWHGLIHGWWG)”, for which the hemolysis activity entry in the series with erythrocytes (pH 6.4) is given as “full hemolytic activity”. As for “JTS-1: amphipathic acidic fusogenic peptide developed by Gottschalk and coworkers (GGLFEALLELLESLWELLLEA)”, in the series on erythrocytes (pH of 5), the “higher hemolysis activity than INF-7” value was 8 fold.
